Biological target: wild-type rTpiA (recombinant Streptococcus pneumoniae D39 triosephosphate isomerase) (Streptococcus pneumoniae D39) (UniProt Q04JH4)
Experiment: SPR; Biacore X100; rTpiA immobilised on CM5 chip by amine coupling; plasminogen 6.25-100 nM injected, contact time 120 s, 20 µL/min; running buffer 100 mM HEPES pH 7.4, 150 mM NaCl, 3 mM EDTA, 0.005% surfactant P20; apparent constants

Chain of wild-type rTpiA (recombinant Streptococcus pneumoniae D39 triosephosphate isomerase) (Streptococcus pneumoniae D39) (Q04JH4 2-252): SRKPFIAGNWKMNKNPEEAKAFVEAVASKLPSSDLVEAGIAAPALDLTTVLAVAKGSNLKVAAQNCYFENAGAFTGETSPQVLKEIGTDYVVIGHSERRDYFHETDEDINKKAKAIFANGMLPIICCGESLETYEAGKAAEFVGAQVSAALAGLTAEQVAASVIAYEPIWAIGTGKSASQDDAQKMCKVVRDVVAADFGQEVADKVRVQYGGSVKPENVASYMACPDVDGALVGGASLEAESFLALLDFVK

human plasma plasminogen (natural protein)
Kd: 865 nM | koff: 0.00375 s⁻¹ | kon: 4340 M⁻¹ s⁻¹

Source: PMC10221034 (2023)
